Assay results taken from FireProtDB (doi:10.1371/journal.ppat.1004158).

B1: Heterokaryon incompatibility protein s, Q03689 (parent)
chain: MSEPFGIVAGALNVAGLFNNCVDCFEYVQLGRPFGRDYERCQLRLDIAKARLSRWGEAVKINDDPRFHSDAPTDKSVQLAKSIVEEILLLFESAQKTSKRYELVADQQDLVVFEDKDMKPIGRALHRRLNDLVSRRQKQTSLAKKTAWALYDGKSLEKIVDQVARFVDELEKAFPIEAVCHKLAEIEIEEVEDEASLTILKDAAGGIDAAMSDAAAQKIDAIVGRNSAKDIRTEERARVQLGNVVTAAALHGGIRISDQTTNSVETVVGKGESRVLIGNEYGGKGFWDN

Variants of: B1
Details: Podospora anserina; pH 7.5; 25 °C; GdnHCl; optical density; structure 2KJ3; whole UniProt chain shown

Q: For E272A, which “ddG of mutation (higher = less stable)” value is on record?
A: The value was -1.9 kcal/mol.

Q: And the unfolding free energy?
A: The unfolding free energy was 4.8 kcal/mol.

Q: For L241A, which “ddG of mutation (higher = less stable)” value is on record?
A: The value was -1 kcal/mol.

Q: And the unfolding free energy?
A: Its unfolding free energy is 3.9 kcal/mol.

Q: With S273A as the variant, how does the “ddG of mutation (higher = less stable)” value read?
A: The value was -1.4 kcal/mol.

Q: And the unfolding free energy?
A: The unfolding free energy was 4.3 kcal/mol.

Q: Which results are given for D288A?
A: ddG of mutation (higher = less stable): -1.2 kcal/mol; unfolding free energy: 4.1 kcal/mol

Q: Which results are given for G278A?
A: ddG of mutation (higher = less stable): 0.8 kcal/mol; unfolding free energy: 2.5 kcal/mol

Q: For K229A, which “ddG of mutation (higher = less stable)” value is on record?
A: Its value is -1.5 kcal/mol.

Q: What about the unfolding free energy of the same variant?
A: The unfolding free energy was 4.4 kcal/mol.

Q: Which results are given for V267A?
A: ddG of mutation (higher = less stable): -0.2 kcal/mol; unfolding free energy: 2.9 kcal/mol

Q: For V264A, which “ddG of mutation (higher = less stable)” value is on record?
A: Its value is -1 kcal/mol.

Q: What about the unfolding free energy of the same variant?
A: The unfolding free energy was 4 kcal/mol.

Q: Which results are given for V239A?
A: ddG of mutation (higher = less stable): -1 kcal/mol; unfolding free energy: 3.9 kcal/mol
